Experimental data as given in publication PMC8117407.

Molecular target: mXFP-TpoR (thrombopoietin receptor N-terminally fused to nonfluorescent mEGFP Tyr66Phe) (UniProt P40238)
Assay: live-cell micropatterning with FRAP

## JAK2 FS L224E (domain or fragment)
  fold reduction of binding stability against JAK2 FS wt: 20 fold
